Data reported in article PMC4190069.

Key:
[1] = target: Rad51 (wild type);Rad52 (wild type);RPA (wild type) (Saccharomyces cerevisiae;Saccharomyces …, UniProt P25454;P06778;P22336;P26754;P26755 1-400;1-471;1-621;1-273;1-122, ||); experiment: bead pull-down
[2] = target: RPA (wild type);Rad52 (wild type) (Saccharomyces cerevisiae;Saccharomyces …, UniProt P22336;P26754;P26755;P06778 1-621;1-273;1-122;1-471, |); experiment: bead pull-down
RPA (wild type);Rad52 (wild type), sequence (P22336 whole entry, chain 1 of 4): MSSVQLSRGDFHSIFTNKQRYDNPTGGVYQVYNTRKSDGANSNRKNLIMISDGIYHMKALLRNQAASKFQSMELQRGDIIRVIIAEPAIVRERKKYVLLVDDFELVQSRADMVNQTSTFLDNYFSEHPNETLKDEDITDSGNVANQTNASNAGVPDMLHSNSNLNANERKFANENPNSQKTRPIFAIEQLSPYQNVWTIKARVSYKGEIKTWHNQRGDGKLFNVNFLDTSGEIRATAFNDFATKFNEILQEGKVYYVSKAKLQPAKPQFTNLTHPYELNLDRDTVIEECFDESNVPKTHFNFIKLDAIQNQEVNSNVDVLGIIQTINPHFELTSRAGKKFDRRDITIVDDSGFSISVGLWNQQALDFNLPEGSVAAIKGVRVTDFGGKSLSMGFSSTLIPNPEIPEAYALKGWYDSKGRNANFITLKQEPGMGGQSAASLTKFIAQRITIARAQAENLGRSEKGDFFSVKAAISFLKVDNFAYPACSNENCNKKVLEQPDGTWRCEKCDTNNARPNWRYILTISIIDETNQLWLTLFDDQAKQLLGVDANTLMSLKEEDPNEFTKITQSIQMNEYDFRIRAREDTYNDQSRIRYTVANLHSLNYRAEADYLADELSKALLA
RPA (wild type);Rad52 (wild type), sequence (P26754 whole entry, chain 2 of 4): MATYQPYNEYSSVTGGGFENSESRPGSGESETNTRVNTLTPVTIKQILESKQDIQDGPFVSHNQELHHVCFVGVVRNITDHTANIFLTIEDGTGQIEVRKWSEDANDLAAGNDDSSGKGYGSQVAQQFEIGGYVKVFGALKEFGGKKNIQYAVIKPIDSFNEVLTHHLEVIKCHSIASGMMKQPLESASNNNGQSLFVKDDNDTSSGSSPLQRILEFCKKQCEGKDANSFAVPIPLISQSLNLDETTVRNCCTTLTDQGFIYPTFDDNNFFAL
RPA (wild type);Rad52 (wild type), sequence (P26755 whole entry, chain 3 of 4): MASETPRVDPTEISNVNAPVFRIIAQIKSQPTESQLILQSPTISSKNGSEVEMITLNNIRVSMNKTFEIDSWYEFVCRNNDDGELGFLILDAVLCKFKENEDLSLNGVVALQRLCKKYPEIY
RPA (wild type);Rad52 (wild type), sequence (P06778 whole entry, chain 4 of 4): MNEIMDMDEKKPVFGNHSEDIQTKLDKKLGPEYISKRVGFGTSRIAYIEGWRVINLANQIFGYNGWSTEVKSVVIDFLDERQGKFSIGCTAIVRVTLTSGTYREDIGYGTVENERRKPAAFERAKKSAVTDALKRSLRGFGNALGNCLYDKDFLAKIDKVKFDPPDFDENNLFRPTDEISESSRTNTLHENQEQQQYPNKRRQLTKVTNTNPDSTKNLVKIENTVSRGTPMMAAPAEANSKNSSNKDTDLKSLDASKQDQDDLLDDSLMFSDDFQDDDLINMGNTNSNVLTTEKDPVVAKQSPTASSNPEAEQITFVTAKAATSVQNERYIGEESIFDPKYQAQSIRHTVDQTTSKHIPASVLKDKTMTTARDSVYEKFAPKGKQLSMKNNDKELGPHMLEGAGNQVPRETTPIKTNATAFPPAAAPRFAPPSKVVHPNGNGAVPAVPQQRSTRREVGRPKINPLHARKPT

B1: 74-nt biotinylated ssDNA oligo (ssDNA)
DNA: TTTTTTGTAAAACGACGGCCAGTGCCAAGCTTGCATGCCTGCAGGTCGACTCTAGAGGATCCCCGGGTACCGAG
modifications: 5' biotin
B1: binds [1]; binds [2].
